Reference: patent US20170051059A1

Target: human FcRn (human) (UniProt P55899)
Experiment: SPR (Biacore), pH 7.1; antibody captured on biot-IZ-hCD40L, soluble receptor as analyte

UniProt P55899, sequence (P55899 24-297 limits assumed, chain 1 of 2): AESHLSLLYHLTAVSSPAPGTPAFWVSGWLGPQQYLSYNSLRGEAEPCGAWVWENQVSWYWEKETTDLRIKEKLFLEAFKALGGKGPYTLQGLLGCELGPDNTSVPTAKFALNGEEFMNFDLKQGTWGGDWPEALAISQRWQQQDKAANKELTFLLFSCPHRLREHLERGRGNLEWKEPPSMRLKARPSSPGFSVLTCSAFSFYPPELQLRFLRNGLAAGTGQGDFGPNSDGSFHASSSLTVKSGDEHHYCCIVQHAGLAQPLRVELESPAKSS
UniProt P55899, sequence (chain, as listed by the source limits assumed, chain 2 of 2): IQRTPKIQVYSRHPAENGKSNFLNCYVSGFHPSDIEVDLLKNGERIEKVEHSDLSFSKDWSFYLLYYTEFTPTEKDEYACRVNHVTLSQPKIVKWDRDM

5c8-IgG1 (antibody)
Kd: > 5 µM
